Measurements taken from the supplement of paper PMC10126150.
± gives the standard deviation of the averaged measurements.
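Also: ATP exposure 15 min at 22 °C before imaging.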

These sequences were tested on ATP (assay: switch fluorescence ratio, 500 uM ATP over buffer (Cy3 cluster intensity, sum of 5 cycles each) (fold (ratio)); higher = stronger signal-on switching upon ATP binding; sequences stand for … in TCGTCGGCAGCGTCAGATGTGTATAAGAGACAGTTTTTTTTTTTTTTTTTTTTTTTTT…TC). Conditions: aptamer strand: ATP DNA aptamer (quencher-CACCTGGGGGAGTATTGCGGAGGAAGG + anchor), 100 nM annealed; ATP concentration: 500 uM.
In short: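 Five buffer/ATP imaging cycles were run on Cy3-labelled switching-strand clusters on a modified Illumina MiSeq flow-cell, with NaOH stripping and re-annealing between cycles. In each cycle, clusters annealed to 100 nM quencher-labelled ATP aptamer were imaged in selection buffer, then after 15 min with 500 uM ATP at 22 °C. Per cluster, the fluorescence ratio is summed target-cycle over summed buffer-cycle Cy3 intensity, averaged per switch-domain sequence. Only clusters within 100-1000 RFU were kept.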
TGGACGAAGT showed a switch fluorescence ratio of 1.01 ± 0.023.
For TGGACGTGTC, the switch fluorescence ratio was 1 ± 0.019.
Sequence TGGACTATTA has a switch fluorescence ratio of 1.015 ± 0.01.
TGGACTTTTT was tested, and the switch fluorescence ratio was 0.971 ± 0.057.
TGGAGAAATA gave a switch fluorescence ratio of 1.01 ± 0.048.
For TGGAGATTAG, the switch fluorescence ratio was 1.01 ± 0.054.
With TGGAGCGGTT the switch fluorescence ratio was 1.03 ± 0.032.
For TGGAGGAGAG, the switch fluorescence ratio was 0.99 ± 0.018.
In the case of TGGAGGGGCA, the switch fluorescence ratio is reported as 1.03 ± 0.022.
In the case of TGGAGGGGGT, the switch fluorescence ratio is reported as 1.09 ± 0.28.
TGGAGTAATT was tested, and the switch fluorescence ratio was 1.06 ± 0.063.
TGGAGTCGTG gave a switch fluorescence ratio of 0.9729 ± 0.0091.
In the case of TGGATAAGAG, the switch fluorescence ratio is reported as 0.975 ± 0.019.
TGGATATAGT gave a switch fluorescence ratio of 0.9937 ± 0.0038.
Work on TGGATATGGG yielded a switch fluorescence ratio of 1.01 ± 0.028.
TGGATCAAAT was tested, and the switch fluorescence ratio was 0.9705 ± 0.0049.
Work on TGGATGAAGT yielded a switch fluorescence ratio of 1 ± 0.047.
For TGGATGATTG, the switch fluorescence ratio was 0.984 ± 0.022.
In the case of TGGATGCATT, the switch fluorescence ratio is reported as 1.03 ± 0.015.
In the case of TGGATGGGTA, the switch fluorescence ratio is reported as 1.22 ± 0.33.
With TGGATGTATG the switch fluorescence ratio was 0.99 ± 0.04.
TGGATGTGGC showed a switch fluorescence ratio of 0.963 ± 0.031.
Work on TGGATTACGT yielded a switch fluorescence ratio of 1.018 ± 0.0032.
TGGATTGGAT gave a switch fluorescence ratio of 1.03 ± 0.035.
With TGGCAAAATT the switch fluorescence ratio was 1.01 ± 0.033.
TGGCAAAGGA gave a switch fluorescence ratio of 0.989 ± 0.026.
TGGCAAATGT was tested, and the switch fluorescence ratio was 0.9818 ± 0.0049.
In the case of TGGCAATATT, the switch fluorescence ratio is reported as 2.31 ± 1.6.
Sequence TGGCACATAT has a switch fluorescence ratio of 1.04 ± 0.054.
TGGCATCTTT showed a switch fluorescence ratio of 1.02 ± 0.018.
TGGCCATCCT showed a switch fluorescence ratio of 1.62 ± 0.82.
Work on TGGCCCGGGG yielded a switch fluorescence ratio of 0.988 ± 0.031.
With TGGCCCTTTT the switch fluorescence ratio was 1.07 ± 0.13.
For TGGCCGGGTT, the switch fluorescence ratio was 1.33 ± 0.4.
Sequence TGGCCGTGCT has a switch fluorescence ratio of 0.904 ± 0.071.
TGGCCTAGTG was tested, and the switch fluorescence ratio was 1.002 ± 0.0071.
TGGCGAAGGA was tested, and the switch fluorescence ratio was 1.018 ± 0.0019.
TGGCGAGTCC was tested, and the switch fluorescence ratio was 0.973 ± 0.015.
TGGCGGCATG was tested, and the switch fluorescence ratio was 1.01 ± 0.06.
TGGCGGCTTT gave a switch fluorescence ratio of 1.01 ± 0.041.
Sequence TGGCGGGGGG has a switch fluorescence ratio of 0.994 ± 0.035.
Work on TGGCGGGGTA yielded a switch fluorescence ratio of 1.02 ± 0.034.
In the case of TGGCGGGGTC, the switch fluorescence ratio is reported as 0.9992 ± 0.0094.
In the case of TGGCGGTATA, the switch fluorescence ratio is reported as 0.993 ± 0.012.
With TGGCGGTCGG the switch fluorescence ratio was 1 ± 0.048.
Sequence TGGCGTGGGA has a switch fluorescence ratio of 1 ± 0.035.
Sequence TGGCGTTGGT has a switch fluorescence ratio of 0.994 ± 0.056.
TGGCTCAGTC was tested, and the switch fluorescence ratio was 0.997 ± 0.044.
Work on TGGCTCCATT yielded a switch fluorescence ratio of 1.01 ± 0.034.
TGGCTGCAGA was tested, and the switch fluorescence ratio was 0.972 ± 0.064.
For TGGCTGGTAA, the switch fluorescence ratio was 0.991 ± 0.021.
TGGCTTGGTA showed a switch fluorescence ratio of 1 ± 0.02.
With TGGCTTGTTT the switch fluorescence ratio was 0.99 ± 0.058.
TGGGAAAGTT was tested, and the switch fluorescence ratio was 0.988 ± 0.025.
Sequence TGGGAACTCT has a switch fluorescence ratio of 0.994 ± 0.012.
Work on TGGGAAGTTG yielded a switch fluorescence ratio of 0.956 ± 0.04.
TGGGAATAGG gave a switch fluorescence ratio of 0.993 ± 0.019.
For TGGGAATAGT, the switch fluorescence ratio was 1 ± 0.049.
For TGGGAATGTT, the switch fluorescence ratio was 1.01 ± 0.011.
In the case of TGGGAATTAA, the switch fluorescence ratio is reported as 0.979 ± 0.04.
TGGGAATTGT showed a switch fluorescence ratio of 1 ± 0.026.
With TGGGACCCTT the switch fluorescence ratio was 1.06 ± 0.023.
With TGGGACGACG the switch fluorescence ratio was 0.991 ± 0.022.
TGGGACTGTT was tested, and the switch fluorescence ratio was 0.986 ± 0.028.
TGGGAGAGGA was tested, and the switch fluorescence ratio was 1.02 ± 0.049.
Sequence TGGGAGAGTT has a switch fluorescence ratio of 0.993 ± 0.023.
Work on TGGGAGATAT yielded a switch fluorescence ratio of 1 ± 0.028.
TGGGAGCATA was tested, and the switch fluorescence ratio was 1.05 ± 0.022.
TGGGAGCCCG showed a switch fluorescence ratio of 0.9853 ± 0.0034.
For TGGGAGCGGT, the switch fluorescence ratio was 0.995 ± 0.007.
TGGGAGGATG showed a switch fluorescence ratio of 1.01 ± 0.039.
TGGGAGGGAA gave a switch fluorescence ratio of 0.995 ± 0.013.
TGGGAGGGTA was tested, and the switch fluorescence ratio was 0.982 ± 0.022.
With TGGGAGGTCG the switch fluorescence ratio was 1.09 ± 0.03.
TGGGAGTCGG was tested, and the switch fluorescence ratio was 1.01 ± 0.035.
Sequence TGGGAGTGGT has a switch fluorescence ratio of 1 ± 0.003.
For TGGGATACAG, the switch fluorescence ratio was 0.982 ± 0.026.
In the case of TGGGATACGT, the switch fluorescence ratio is reported as 1.55 ± 0.79.
TGGGATCGTC showed a switch fluorescence ratio of 0.966 ± 0.042.
TGGGATGAGT showed a switch fluorescence ratio of 1.007 ± 0.0081.
TGGGATTGCG gave a switch fluorescence ratio of 1.04 ± 0.012.
TGGGATTGGC was tested, and the switch fluorescence ratio was 1.01 ± 0.11.
TGGGATTTCA showed a switch fluorescence ratio of 0.979 ± 0.045.
For TGGGATTTTT, the switch fluorescence ratio was 0.985 ± 0.031.
Sequence TGGGCCGCTT has a switch fluorescence ratio of 1.04 ± 0.028.
